From publication PMC4161306, “Regulation of Arabidopsis Flowering by the Histone Mark Readers MRG1/2 via Interaction with CONSTANS to Modulate FT Expression” (PLoS Genetics, 2014)

Tests used:
CO [1] = assay: Pull-down truncation analysis of MRG2 with GST-fused CO; format: binding, Arabidopsis; conditions: in vitro pull-down, Figure 5B
Experimental: (§1) MRG2 and MRG2C (442–984) cDNA were amplified with primers MRG2-1/MRG2-10 and MRG2-9/MRG2-10, respectively, and then cloned into pET-30a vector (Novagen, www.novagen.com). The resulting constructs and pET-30a-MRG2N were used for purification of His-tagged MRG2, MRG2C, and MRG2N proteins. CO cDNA was amplified using primers CO-1/CO-2, and then cloned into pGEX-4T-1 vector for purification of GST-fused CO proteins. Pulldown experiments were performed according to a previously described protocol.

CO [2] = assay: Bimolecular fluorescence complementation (BiFC) in tobacco leaf cells; format: cell-based, Arabidopsis; conditions: split YFP, Nicotiana benthamiana leaves, 2–3 days after infiltration, Figure 5C
Experimental: BiFC was performed as described by Sun et al.. For BiFC assays, MRG2C cDNA was amplified using primers MRG2-11/MRG2-12, and then cloned into pXY103 and pXY106 vectors. CO cDNA was amplified by primers CO-3/CO-4, and then cloned into a pXY104 vector. Leaves of 4- to 8-week-old Nicotiana benthamiana plants were co-infiltrated with Agrobacterium tumefaciens strain […] carrying transgene constructs. Localization of BiFC fluorescence was observed 2–3 days after infiltration using a confocal laser scanning microscope (LSM 710, ZEISS, Germany).

MRG2 = assay: GST pull-down assay, His-tagged MRG2; format: binding, Arabidopsis; conditions: in vitro, purified proteins from E. coli, Figure 5B
Experimental: as §1

B1: MRG2C: MRG domain of MRG2, cDNA 442–984 (protein)
chain: RKQDSVDTEKNVLPSDNLLSFNIPPALRKQLLDDFEFVTQMQKLVQLPRSPNVDGILKKYIDSQMKKHGRVTDSLEEILKGLRCYFDKALPVMLLYNNERKQYEESVSGGVSPSTVYGAEHLLRLFVKLPELLVHVNMAEETLKELQDNFVDILRFLRKNQSVLFVSTYKAVEEMEKKEG
modifications: left off: His tag, end not stated, kept
For B1, the “binding to CO” value (CO [1]) was “contributed to binding to CO” and the “interaction with CO in vivo” value (CO [2]) was “interacted in vivo”.

B2: MRG2N: chromodomain of MRG2, cDNA 1–369 (protein)
chain: MGSPNAAAETDLTTDDFIGDTRRDSGSDTETNTDCDGEDLPLLLLPAPPGHFEEGERVLAKHSDCFYEAKVLKVEFKDNEWKYFVHYIGWNKSWDEWIRLDCLLKHSDENIEKQKEQGLKQQG
modifications: left off: His tag, N-terminal, kept
In the case of B2, the “binding to CO” value (CO [1]) is reported as “not”.

B3: GST-fused CO: GST-fused CONSTANS protein purified from E. coli (protein)
chain: MLKQESNDIGSGENNRARPCDTCRSNACTVYCHADSAYLCMSCDAQVHSANRVASRHKRVRVCESCERAPAAFLCEADDASLCTACDSEVHSANPLARRHQRVPILPISGNSFSSMTTTHHQSEKTMTDPEKRLVVDQEEGEEGDKDAKEVASWLFPNSDKNNNNQNNGLLFSDEYLNLVDYNSSMDYKFTGEYSQHQQNCSVPQTSYGGDRVVPLKLEESRGHQCHNQQNFQFNIKYGSSGTHYNDNGSINHNAYISSMETGVVPESTACVTTASHPRTPKGTVEQQPDPASQMITVTQLSPMDREARVLRYREKRKTRKFEKTIRYASRKAYAEIRPRVNGRFAKREIEAEEQGFNTMLMYNTGYGIVPSF
modifications: left off: GST, end not stated, kept
notes: GST-fused CONSTANS protein purified from E. coli
In the case of B3, the “pull-down of His-tagged MRG2” value (MRG2) is reported as “could pull-down MRG2”.

B4: MRG2: Arabidopsis Morf Related Gene group protein MRG2 (protein, UniProt Q4V3E2 1-327, looked up)
Protein MRG2: MGSPNAAAETDLTTDDFIGDTRRDSGSDTETNTDCDGEDLPLLLLPAPPGHFEEGERVLAKHSDCFYEAKVLKVEFKDNEWKYFVHYIGWNKSWDEWIRLDCLLKHSDENIEKQKEQGLKQQGIKSAMAWKVSKMKPRSPNVARGRKRKQDSVDTEKNVLPSDNLLSFNIPPALRKQLLDDFEFVTQMQKLVQLPRSPNVDGILKKYIDSQMKKHGRVTDSLEEILKGLRCYFDKALPVMLLYNNERKQYEESVSGGVSPSTVYGAEHLLRLFVKLPELLVHVNMAEETLKELQDNFVDILRFLRKNQSVLFVSTYKAVEEMEKKEG
B4 was tested, and the “interaction with CO in vivo” value (CO [2]) was “interacted in vivo”.
